{"source": "paper PMC9975500", "about": "“High level expression of nicotinamide nucleoside kinase from Saccharomyces cerevisiae and its purification and immobilization by one-step method” (Frontiers in Bioengineering and Biotechnology, 2023)", "proteins": {"B1": {"name": "reScNRK1 (recombinant nicotinamide riboside kinase1; nicotinamide nucleoside kinase1) (Saccharomyces cerevisiae S288C) (protein)", "chain": "MTSKKVILVALSGCSSSGKTTIAKLTASLFTKATLIHEDDFYKHDNEVPVDAKYNIQNWDSPEALDFKLFGKELDVIKQTGKIATKLIHNNNVDDPFTKFHIDRQVWDELKAKYDSINDDKYEVVIVDGFMIFNNTGISKKFDLKILVRAPYEVLKKRRASRKGYQTLDSFWVDPPYYFDEFVYESYRANHAQLFVNGDVEGLLDPRKSKNIKEFINDDDTPIAKPLSWVCQEILKLCKD", "notes": "free enzyme"}}, "key": {"[1]": {"substrate": "NC(=O)c1ccc[n+]([C@@H]2O[C@H](CO)[C@@H](O)[C@H]2O)c1", "assay": "purified protein", "conditions": "free enzyme, ATP 1 mM, 10 mM MgCl2, 20 mM Tris-HCl pH 5.8, optimal temperature (30 °C for free enzyme)"}, "[2]": {"substrate": "Nc1ncnc2c1ncn2[C@@H]1O[C@H](COP(=O)(O)OP(=O)(O)OP(=O)(O)O)[C@@H](O)[C@H]1O", "assay": "HPLC of NMN formed, Michaelis-Menten fit", "assay_type": "biochemical, Saccharomyces cerevisiae", "conditions": "free enzyme, NR 1 mM, 10 mM MgCl2, 20 mM Tris-HCl pH 5.8, optimal temperature (30 °C for free enzyme)"}}}
{"protein": "B1", "values": [{"measurement": "Km", "setting": "[1]", "result": 18.69, "unit": "mM"}, {"measurement": "Vmax", "setting": "[1]", "result": 98.4, "unit": "µmol/min/mg"}, {"measurement": "Km", "setting": "[2]", "result": 54.27, "unit": "mM"}, {"measurement": "Vmax", "setting": "[2]", "result": 137, "unit": "µmol/min/mg"}]}
